What was measured:
[1] = system: C=C(O[C@@H]1C=C(C(=O)O)C=C[C@H]1O)C(=O)O; assay: purified protein; type: biochemical, Pantoea agglomerans; conditions: 32°C, 40–75 nM enzyme, 0.1 mg/ml bovine serum albumin
[2] = target: T1, *AatIβ (periplasmic aromatic aminotransferase) (Pseudomonas aeruginosa, UniProt Q9I0V2); assay: aromatic aminotransferase activity assay; type: biochemical; conditions: activity followed through purification
T1 sequence (Q9I0V2 29-374): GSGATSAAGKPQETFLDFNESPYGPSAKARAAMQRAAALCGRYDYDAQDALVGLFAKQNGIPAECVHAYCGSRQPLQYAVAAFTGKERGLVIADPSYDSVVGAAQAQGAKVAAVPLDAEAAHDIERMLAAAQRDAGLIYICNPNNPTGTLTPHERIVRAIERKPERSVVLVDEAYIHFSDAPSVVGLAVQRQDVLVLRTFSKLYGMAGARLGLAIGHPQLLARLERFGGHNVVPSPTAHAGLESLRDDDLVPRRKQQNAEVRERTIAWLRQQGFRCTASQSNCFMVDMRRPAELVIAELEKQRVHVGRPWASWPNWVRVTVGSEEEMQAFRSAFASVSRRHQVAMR

[3] = system: C=C(O[C@@H]1C=C(C(=O)O)C=C[C@H]1O)C(=O)O; assay: purified protein; type: biochemical, Salmonella enterica; conditions: 32°C, 40–75 nM enzyme, 0.1 mg/ml bovine serum albumin
purified protein = substrate: C=C(O[C@@H]1C=C(C(=O)O)C=C[C@H]1O)C(=O)O; assay: purified protein; type: biochemical, Pseudomonas aeruginosa; conditions: 32°C, 40–75 nM enzyme, 0.1 mg/ml bovine serum albumin

Molecule: *AroQ (Erwinia herbicola periplasmic chorismate mutase) (Pantoea agglomerans)
- Km [1]: 169 µM
- kcat [1]: 9.7 s⁻¹

Molecule: N[C@@H](Cc1ccccc1)C(=O)O [phenylalanine]
- aromatic aminotransferase activity assay ([2]; co-substrate α-ketoglutarate): phenylalanine and α-ketoglutarate were used as the substrates, unless indicated otherwise

Molecule: *AroQ (Salmonella typhimurium periplasmic chorismate mutase) (Salmonella enterica subsp. enterica serovar Typhimurium)
- Km [3]: 142 µM
- kcat [3]: 8.9 s⁻¹

Molecule: O=C(O)CCC(=O)C(=O)O [α-ketoglutarate]
- aromatic aminotransferase activity assay ([2]; co-substrate phenylalanine): phenylalanine and α-ketoglutarate were used as the substrates, unless indicated otherwise

B1: *AroQ (Pseudomonas aeruginosa periplasmic chorismate mutase) (Pseudomonas aeruginosa PAO1) (protein)
chain: QPLSPALQQLLSLSSQRLQLADQVAQSKAQSGKAVQDSPREEQQLQMLAGQAGSHGVGAEQVRLLFAAQIEANKLVQYRLLSRPLPDAGQAVDLERIRSRLNQLNLELLRGYAPALAELRVDDCRPRLNQALQRQVRVDRLDELHAIALSRAAGDLCHWAEL
- kcat (purified protein): 6.4 s⁻¹
